Test results as given in article PMC9290431.
“And” between values parts separate entries of the source, which are not always exact repeats. Identical values can stand only once. Like-named read-outs stand apart in the source and are kept apart here.

What was measured:
TDP-43 NTD-NLS (human) [1] = assay: AUC
TDP-43 NTD-NLS (human) [2] = assay: AUC; remark: listed apart in the source

stoichiometry N (TDP-43 NTD-NLS (human) [1]): 8
stoichiometry N (TDP-43 NTD-NLS (human) [2]): 2 and 4
Substance: TDP-43 NTD-NLS (domain or fragment)
